According to the RNAGym collection of RNA variant scans (doi:10.1073/pnas.2313332121):

B1: TPR t1 (parent)
chain: GACCAAUCUGCCCUCAGAGCUCGAGAACAUCUUCGGAUGCAGAGGAGGCAGGCUUCGGUGGCGCGAUAGCGCCAACGUCCUCAACCUCCAAUGCAUCCCACCACAUGAUGAUGCCUGAAGAGCCUUGGUUUUUUG

Variants of: B1
Assay: polymerase ribozyme fitness, log enrichment relative to wild type (log ratio); higher = more active; in vitro selection for triplet polymerase activity
Method in brief: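 Fitness compares each genotype's enrichment to that of the wild type on a logarithmic scale, averaging replicates with inverse-variance weights. The logarithm is base 2. Enrichment came from Illumina sequencing of input and output libraries after one triplicate round of in vitro selection, which included frozen incubation at −7 °C, of PCR-built, transcribed mutant libraries of each subunit of a heterodimeric triplet polymerase ribozyme. Only genotypes with ≥10 input reads and ≥1 read per output were kept.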

Variant	polymerase ribozyme fitness (log ratio)
C13U U21C A27C U87G C114G	-6.59
C34U U81A	-5.06
G23C	-6.4
G23U	-6.05
A46U U87A	-0.324
A6C U14G C94U C101G	-4.26
C97G G120C	-4.64
G44C C53U G61U C124U	0.752
A2G G45U	-1.83
U9A G42C C62A C101U	-3.42
G39U G51U	-4.93
A46C C79A C85G	-5.69
C34G G35C G63U A111U	-5.76
A46C C62G	-2.43
C3G C73U	-2.12
G63U C79A G110U	-5.14
C11A C70G C80U C97G C124A	-5.66
C82G A84U	0.00652
C34A A50U G61U	-3.7
A2C U21G C72A G77U	-4.23
A29U U112A U126G	-2.25

Variant	polymerase ribozyme fitness (log ratio)
G19A C72A	-2.12
U7A G10A C53U G61C	-0.31
A2C C73A	-1.09
A29U U81A C82A U87G U112A	-1.91
U7A C12A G35A C53U	-5.51
A18U A37U A41G C64U	-2.4
C20A C70U C76G	-3.5
C13U G63U C70G C114A G120C	-0.574
C40A A41U A50C	-1.94
A6U A37U C101G C123A U125G U132A	-2.11
C12A C28G G44A	-4.91
U7G G69C	-0.478
G44A C124U	0.684
A2G C15G	-3.2
A119C	-4.38
U9C A26G C72G C79U	-0.65
C80U C98G	-6.73
C70A C73U C99U G107U U109C G117U	-6.35
A6C C72G	-0.682
A6G U7A C53U C80G C101A	-5.66
C13U C34U G52C C70A	-5.48

Variant	polymerase ribozyme fitness (log ratio)
C72G U87C C99U C115G	-5.69
G63A A84C	-0.832
G47A C104U	-1.4
G47U C62U G71U C82A A95U	-3.36
G63C C76A A91C A100C C115G C123A	-4.91
G71C C94A G113C	-4.44
G110C G120C	-4.2
C53U G71U C89U C115U	-3.54
U9G C12G G60U	0.216
A29C G63A G120U	-3.1
A5U C62U C72U	-0.208
G25U C94U C101U G113A C124A	-7.17
A2G G61C C88U C124A	-0.51
C11U C53U C62U G110A U129A	-4.11
C62A C104A G113A	-4.4
A26U A43G G48U C94G G110A	-6.66
C64U G110C	-3.51
C22G G44C G48U A121U	-3.43
U9C C73U C85U G120C	1.44
G42U U109G	-5.53
G58A A91C C101A	-1.1

Variant	polymerase ribozyme fitness (log ratio)
G47A A50U U81A	-0.591
G47A U87A U96A	-2.62
C80A C86U	-3.32
G69C U81C	-1.86
G52U C56U A84U	-1.37
G36C C123U	-0.107
G60U U106A	-0.529
C8G A74C G120C	1.98
G35A G117C	-6.51
U38C C40U C56G U78A G113A	-3.17
U9G G77A	0.17
G19C A37U C62G C124U	-3.51
G19U C115G U130G	-5.08
A24G C62A A74C G120C	-4.13
C12A A91C U106A G117U	-5.61
C34U G58A C99U	-4.17
C34G G61A	-5.85
A37G C72U	-0.261
U78C G135U	-1.27
U21A G42U G60C	-2.45
G36U C73G U106A G127C	-2.55
